Assay results published in publication PMC2034099, “Preparation and preclinical evaluation of humanised A33 immunoconjugates for radioimmunotherapy” (British Journal of Cancer, 1995).

Biological target: T1, A33 antigen (Homo sapiens, endogenous on SW1222 and …, UniProt Q99795)
T1 construct: A33 antigen on human colorectal tumour cell lines; also called the antigen recognised by A33; source: endogenous, on SW1222 and Colo205 human colorectal tumour cells
Test: flow cytometry on cells; Scatchard analysis: FITC-labelled antibodies titrated on 2.8 x 10^5 SW1222 cells, 2 h on ice, 350 ul PBS with 5% FCS and 0.1% sodium azide; fluorescence per cell calibrated with standard beads; linear regression
Conditions: one partner purified

T1 sequence (Q99795 22-319): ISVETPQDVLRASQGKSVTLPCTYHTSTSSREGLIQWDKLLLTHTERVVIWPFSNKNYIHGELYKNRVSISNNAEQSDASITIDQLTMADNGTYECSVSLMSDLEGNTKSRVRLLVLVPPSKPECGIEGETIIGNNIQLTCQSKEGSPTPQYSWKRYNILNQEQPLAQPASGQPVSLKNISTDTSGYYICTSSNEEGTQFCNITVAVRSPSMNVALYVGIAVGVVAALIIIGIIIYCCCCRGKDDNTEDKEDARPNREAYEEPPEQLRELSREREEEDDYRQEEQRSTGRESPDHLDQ

Kd: 1.28 nM
B1: murine A33 IgG (antibody, V domains shown)
VH: EVKLVESGGGLVKPGGSLKLSCAASGFAFSTYDMSWVRQTPEKRLEWVATISSGGSYTYYLDSVKGRFTISRDSARNTLYLQMSSLRSEDTALYYCAPTTVVPFAYWGQGTLVTVSA
VL: DIVMTQSQKFMSTSVGDRVSITCKASQNVRTVVAWYQQKPGQSPKTLIYLASNRHTGVPDRFTGSGSGTDFTLTISNVQSEDLADYFCLQHWSYPLTFGSGTKLEVK
notes: the scan text reads CAPr at Kabat 92-96, restored to CAPTT from the hA33 line (94-102 are said to be murine); mouse gamma-2a heavy chain constant region ('the murine y-2a of the parent antibody'); mouse light chain constant region; IgG2a; also called mA33; mouse A33; copies: 2 + 2
